Experimental data from paper PMC9032829.
Several values for one entry are separate records, joined by “and”; a condition that tells them apart may be missing. Identical values can stand only once.

Molecular target: entire receptor binding domain (RBD) of SARS-CoV-2 Spike protein (SARS-CoV-2) (UniProt P0DTC2)
Assay: SPR

With “soluble αvβ3 integrin (from UniProt P06756;P05106) (complex)” the Kd was 6.3 nM and 59.3 nM.
